Measured values published in article PMC7560200 (The EMBO Journal, 2020).

Biological target: GST-CENP-C (1-727) (human, UniProt Q03188 1-727)
Assay: pull-down

GST-CENP-C (1-727), sequence (Q03188 1-727): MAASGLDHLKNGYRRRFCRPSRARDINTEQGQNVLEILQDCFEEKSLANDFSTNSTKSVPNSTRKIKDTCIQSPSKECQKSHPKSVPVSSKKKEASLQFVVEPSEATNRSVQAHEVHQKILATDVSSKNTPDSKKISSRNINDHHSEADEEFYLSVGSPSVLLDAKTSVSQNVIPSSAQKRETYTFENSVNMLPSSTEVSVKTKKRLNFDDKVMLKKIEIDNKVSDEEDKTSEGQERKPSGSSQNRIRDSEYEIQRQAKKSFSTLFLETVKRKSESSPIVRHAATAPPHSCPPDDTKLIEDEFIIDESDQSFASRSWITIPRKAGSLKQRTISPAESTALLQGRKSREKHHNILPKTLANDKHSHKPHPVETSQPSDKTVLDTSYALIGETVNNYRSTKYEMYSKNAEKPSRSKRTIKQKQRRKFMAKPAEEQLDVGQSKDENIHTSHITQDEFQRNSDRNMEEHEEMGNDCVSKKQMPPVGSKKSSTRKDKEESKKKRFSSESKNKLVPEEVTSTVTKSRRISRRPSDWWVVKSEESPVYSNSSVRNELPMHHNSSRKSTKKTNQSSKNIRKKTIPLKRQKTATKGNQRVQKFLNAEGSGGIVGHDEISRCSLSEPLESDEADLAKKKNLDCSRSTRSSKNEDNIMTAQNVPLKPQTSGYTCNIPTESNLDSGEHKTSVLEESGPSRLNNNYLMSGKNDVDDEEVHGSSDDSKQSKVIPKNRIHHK

B1: His-CENP-B (161–599) (domain or fragment, human, UniProt P07199 161-599, looked up)
chain: PSEGSGGSTTGWRAREEQPPSVAEGYASQDVFSATETSLWYDFLPDQAAGLCGGDGRPRQATQRLSVLLCANADGSEKLPPLVAGKSAKPRAGQAGLPCDYTANSKGGVTTQALAKYLKALDTRMAAESRRVLLLAGRLAAQSLDTSGLRHVQLAFFPPGTVHPLERGVVQQVKGHYRQAMLLKAMAALEGQDPSGLQLGLTEALHFVAAAWQAVEPSDIAACFREAGFGGGPNATITTSLKSEGEEEEEEEEEEEEEEGEGEEEEEEGEEEEEEGGEGEELGEEEEVEEEGDVDSDEEEEEDEESSSEGLEAEDWAQGVVEAGGSFGAYGAQEEAQCPTLHFLEGGEDSDSDSEEEDDEEEDDEDEDDDDDEEDGDEVPVPSFGEAMAYFAMVKRYLTSFPIDDRVQSHILHLEHDLVHVTRKNHARQAGVRGLGHQS
binding result: binds
